In the supplement of paper PMC12764529:
± gives the half width of the 95% confidence interval.

What was measured:
[1] = folding stability dG unfold from trypsin proteolysis; higher = more stable
How it was run: (§1)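 K50 was inferred by Bayesian fitting of sequencing counts obtained after protease digestion of designed mini-proteins. Unfolding free energy was derived by comparison with a sequence-predicted unfolded-state K50 and a shared folded-state K50, for each protease or both combined. The mini-proteins were under 80 residues, had no cysteine, were carried in a PA-tagged cDNA display construct, and were kept only if AlphaFold2 dimer inter-PAE exceeded 15.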

[2] = folding stability dG unfold from chymotrypsin proteolysis; higher = more stable
How it was run: as §1

[3] = folding stability dG unfold (combined trypsin and chymotrypsin); higher = more stable
How it was run: as §1

Sequence	folding stability dG unfold [1]	folding stability dG unfold [2]	folding stability dG unfold [3]
SAGGGMLEVTREPSPDGVTRYVVTVPADRTVTVTRPDGTTTTTAAPDADAVITYTVPPGTPVAVSLTPSAGG [r13_82_JUSTAS]	0.555 ± 0.03 kcal/mol	-0.524 ± 0.28 kcal/mol	0.207 ± 0.092 kcal/mol
SAGGKEYYLVKIEIEVTPENGKKETIEIELIVDGNPEEALKKAKEIAEYLEKKGFKVEIKKIEVYPASAGGS [r16_525_TrMRF]	3.9 ± 0.15 kcal/mol	4.55 ± 0.073 kcal/mol	4.54 ± 0.15 kcal/mol
SYTLEFEDITLKPVEPGTKISIPGYVKYDGVLYKVTEVTYDPEKGTITITIKVEPEGKPKTLTITIPIPPPS [r1_47_JUSTAS]	2.24 ± 0.11 kcal/mol	1.85 ± 0.086 kcal/mol	2.06 ± 0.19 kcal/mol
SMLNIPSDWKVITIKLEYKVEPGVSEEEVKEKAIEELKKKFPKNTKIEVEVTPDPETGTVTIKITIIIKKSA [r9_657_JUSTAS]	2.15 ± 0.062 kcal/mol	1.38 ± 0.056 kcal/mol	1.84 ± 0.1 kcal/mol
SAGGPWHEQKHEITDPDDGKPIKISHTHYPDGYPRVRIELNNGKKIEFMVPPNGPPTPDQLLDAIKQFSAGG [r13_492_TrROS]	0.317 ± 0.092 kcal/mol	0.452 ± 0.16 kcal/mol	0.478 ± 0.11 kcal/mol
SAGGSAGGSAGMEIEEKGDYLVIRIKVKEGETIELPEGWEVVDVEYDPETEEVTIVIRRKSAGGSAGGSAGG [r11_942_TrROS_Hall]	4.38 ± 0.18 kcal/mol	2.88 ± 0.1 kcal/mol	3.9 ± 0.28 kcal/mol
SAAKKLKELGYKVKKVEVLKPFTLPDGTTLTEYRITVELPTKTVTVDIIAPGESPEIAEEAALAAITASSAG [r14_726_TrMRF]	1.25 ± 0.016 kcal/mol	3.157 ± 0.011 kcal/mol	2.81 ± 0.051 kcal/mol
SAGGSAGGSGAEEIAKALKELGVKKVEITVERNENGELTVTVRVEVEAPPPKVEVKTEEELKKSAGGSAGGS [r12_246_TrROS_Hall]	0.527 ± 0.1 kcal/mol	1.01 ± 0.14 kcal/mol	0.939 ± 0.21 kcal/mol
SAGGSFEPKREIEITLPNGREIEVWRYPGEGQMWVKLRFPNNGQKVEIPVKSPEDAEDSLKKFLKNSAGGSA [r2_70_TrROS]	-0.28 ± 0.29 kcal/mol	-0.334 ± 0.35 kcal/mol	-0.169 ± 0.25 kcal/mol
SAGGSAGGSWRTITYEFKLPKPGQTAEDIAKEIMQLFPGVKDIEIKYYPEEGYIKVDIRFRPNSAGGSAGGS [r20_31_TrROS]	3.37 ± 0.2 kcal/mol	2.88 ± 0.042 kcal/mol	3.13 ± 0.22 kcal/mol
SAGGMSFTMTVPPSNPNQVVGTNVPVSDVPPNYAYTLHFPNTGTTTTIPVSQAEEVKAQPHIDEITATSAGG [r19_302_JUSTAS]	0.688 ± 0.03 kcal/mol	0.0302 ± 0.085 kcal/mol	0.486 ± 0.04 kcal/mol
SAGGSAGGTATLVLPAAAFPSRPDGSLGLEEIRDVARPIAQEAFGTDDITLDVESHPDGFVTITFSSAGGSA [r15_562_TrMRF]	0.642 ± 0.027 kcal/mol	0.197 ± 0.17 kcal/mol	0.519 ± 0.072 kcal/mol
SAGGETRTFMFPFKPGMPLEEIIEELIDVLQKKGKDYPIEFKPIEPDPNGYMLFMATVTNNKITIFWSAGGS [r8_7_TrROS]	2.22 ± 0.05 kcal/mol	3.03 ± 0.083 kcal/mol	2.83 ± 0.17 kcal/mol
SAGGGSSSTTLTLREVTEVIVIPVPPEEEELAEELAKKYESQGIKVELERLPDGTWKLTLTYYRGVSLSAGG [r13_702_JUSTAS]	1.15 ± 0.11 kcal/mol	0.827 ± 0.15 kcal/mol	1.03 ± 0.081 kcal/mol
SAGGSAGGSAGDEKYTLTVTIPVPKNAPVLVGAEKGYEVIDLNPDAPVEEGYITVKVEFGSAGGSAGGSAGG [r11_701_TrMRF]	-0.376 ± 0.086 kcal/mol	-0.833 ± 0.14 kcal/mol	-0.391 ± 0.15 kcal/mol
SAGMVVKFVSPSKKYVAVVYFSPDGKYRTALLYDASGELVSVIPSSVPVEELLEAFPDATVEVYPLDPPSAG [r5_314_TrMRF]	1.95 ± 0.041 kcal/mol	2.59 ± 0.056 kcal/mol	2.34 ± 0.1 kcal/mol
SAGGSAGGEVKIEVNKEKGYLLITVPKEEAEEIAKALKEKFGIKEVKIEVDEETDEVHILVKLESAGGSAGG [r6_661_TrROS_Hall]	2.5 ± 0.14 kcal/mol	2.98 ± 0.12 kcal/mol	2.59 ± 0.27 kcal/mol
SAGGSAGGSAGGSPLLDFPEPVTTLEETTVTVYFDTNDFTVTLNVTTEVTGDVKRPTVVGSAGGSAGGSAGG [r7_735_JUSTAS]	1.1 ± 0.044 kcal/mol	0.464 ± 0.051 kcal/mol	0.788 ± 0.11 kcal/mol
SAGMKSLTITETVTDPNSDNPITIITDPVTGKVIKLYPDGTATVYDPNNPNKSTTYKMSPEEVIEKMSSSAG [r5_491_JUSTAS]	0.0921 ± 0.053 kcal/mol	0.967 ± 0.088 kcal/mol	0.673 ± 0.061 kcal/mol
SAGGSAGGSSKTFKDPDGWTITVEPLDGGVKVEIYWPDGQRQEHLIPPGEPIKIDPNGWYIEISAGGSAGGS [r12_281_TrROS]	0.5 ± 0.069 kcal/mol	2.11 ± 0.061 kcal/mol	1.69 ± 0.19 kcal/mol
SAGGSAGGSAGGEIEVKEGEVVLVRLPDGTLLLYDKNTRRLYRFRFKDGKLEVEELELPESAGGSAGGSAGG [r7_527_TrROS_Hall]	3.35 ± 0.06 kcal/mol	4.356 ± 0.039 kcal/mol	4.03 ± 0.12 kcal/mol

Sequence	folding stability dG unfold [1]	folding stability dG unfold [2]	folding stability dG unfold [3]
SAGGSAGGSAGGPNIKIKDVHEHPPEDGNPIVMFEIKAKDDDGEKVYIIITPDKIHIMPISAGGSAGGSAGG [r7_960_TrROS]	1 ± 0.07 kcal/mol	1.15 ± 0.21 kcal/mol	0.927 ± 0.21 kcal/mol
SAGGSAGGSAGGMNPIVIKKTYPVKSGSFTVTLPEGVTPVSFEKDPNSDTITIEVLVEPSAGGSAGGSAGGS [r10_906_JUSTAS]	0.63 ± 0.067 kcal/mol	-0.713 ± 0.37 kcal/mol	0.0999 ± 0.3 kcal/mol
SAGGSADIARKIAKWLAEMYGIEEIKVKDIDPNGYIKVEIKMRMYDDGEPVEHKMDIEIPIPPGDLSAGGSA [r15_646_TrROS]	1.3 ± 0.035 kcal/mol	2.3 ± 0.031 kcal/mol	1.98 ± 0.081 kcal/mol
SAGGSAGGMTLTLELTLENGKKVRIEVEVNENGSLKVKITYPNGKKVEIEVNMSLEELLKKLLSSAGGSAGG [r6_808_TrROS_Hall]	3.75 ± 0.26 kcal/mol	3.66 ± 0.14 kcal/mol	3.91 ± 0.29 kcal/mol
SAGGSAGGSAGDEPNDVVKIDFTFFFEDGYMIEMDIVIVPNGNIAIEIEIEPIKPPDEGDSAGGSAGGSAGG [r11_998_TrROS]	2.06 ± 0.39 kcal/mol	1.9 ± 0.13 kcal/mol	2.09 ± 0.31 kcal/mol
SITITRDPDYYTLRIPPGMDSVEEVQDFLKELGFKLPPGVKDIQVEEVDKENNQVTITIQLDDPEAIQDLSA [r9_820_TrROS]	0.601 ± 0.085 kcal/mol	0.836 ± 0.28 kcal/mol	0.798 ± 0.2 kcal/mol
SAGGSAGGSASMSYITKVEYKESPEGKLITTTTTTDPTSPNDVKTTTTVTPLPPLNPSPELKSAGGSAGGSA [r18_409_JUSTAS]	-0.309 ± 0.085 kcal/mol	-0.829 ± 0.73 kcal/mol	-0.525 ± 0.29 kcal/mol
SAGGAPSSSPIPIDLGDPNDEEKLKAEVEAIEKEYAAKGVTPITVERVGENKYRIKIPTGGVATVALSAGGS [r16_703_JUSTAS]	-0.55 ± 0.11 kcal/mol	-0.0876 ± 0.12 kcal/mol	-0.169 ± 0.12 kcal/mol
SAGGSAGGSAGKPKTLEVEMLVLDPETRRLYRVRMEIVLDPEDEGKLTIRLEIEELELPDSAGGSAGGSAGG [r17_241_TrROS_Hall]	3.42 ± 0.081 kcal/mol	4.5 ± 0.096 kcal/mol	4.27 ± 0.14 kcal/mol
SAGGSAGGSAGWGLIITIEVEGEYDPANGQWSLNIEIEIQPIRIPPPKEPPPDDNPNNDDSAGGSAGGSAGG [r17_454_TrROS]	2.27 ± 0.23 kcal/mol	4.08 ± 0.15 kcal/mol	3.86 ± 0.32 kcal/mol
SAGGSAGGSAEKVITVWIPLPPGQGVDEIAKEIARYLGFPNIKIDNIQYDPEDGWYQITFKLSAGGSAGGSA [r18_481_TrROS]	3.48 ± 0.096 kcal/mol	4.163 ± 0.032 kcal/mol	3.97 ± 0.061 kcal/mol
SAGGSAGGSDYEYENEKDPDGQTKMKMRPKPPPVTVEVLIKLPNGLYFPIEITIYGNHITISISAGGSAGGS [r12_784_TrROS]	2.17 ± 0.12 kcal/mol	2.52 ± 0.075 kcal/mol	2.32 ± 0.23 kcal/mol
SAMKLSPELLKKLGLSKEDIKEIEIEVEPVPELSEEDLKKKNVTVYKVKIKIKVNGKEYEVELLFVEPKSAG [r14_483_TrROS_Hall]	1.83 ± 0.07 kcal/mol	2.49 ± 0.18 kcal/mol	2.18 ± 0.15 kcal/mol
SKKVTLPIRFPWNGWEIEITAEELAEKKGLDPEDLTIHVVMPGPGWMYTIKIDPDGIEIEPIGPVPPNDMSA [r9_819_TrROS]	1.45 ± 0.029 kcal/mol	2.951 ± 0.026 kcal/mol	2.54 ± 0.074 kcal/mol
MTPTFTVTELPPDLLRVEYTDPVTGKRATFTLPVSPVGDGVRLSAEVDAEGLPEEVAAAIRDAALAALAAAS [r1_403_JUSTAS]	1.48 ± 0.021 kcal/mol	2.3 ± 0.023 kcal/mol	2.06 ± 0.042 kcal/mol
SAGGSAMTTTTSTDPATNKTYVTVTFPKDEALVEEVKEELKKKGIKEIKVYEFPENDLVRVEITVGSAGGSA [r2_358_JUSTAS]	0.452 ± 0.098 kcal/mol	0.767 ± 0.13 kcal/mol	0.685 ± 0.14 kcal/mol
SAGGSAGGSAGGLTFRLPDGTRVRVRVELNEDGELRITVEVEPLPPPPPKVEFYSEEELKSAGGSAGGSAGG [r7_660_TrROS_Hall]	2.72 ± 0.076 kcal/mol	3.06 ± 0.08 kcal/mol	2.92 ± 0.12 kcal/mol
SAGGSAGGSAGGSGSKEPKYYYRVVVEDDGNPVVRTYAPDEPLPAPANLKVFPFLADEESAGGSAGGSAGGS [r4_107_TrMRF]	-0.421 ± 0.81 kcal/mol	0.857 ± 0.19 kcal/mol	0.452 ± 0.25 kcal/mol
SAGGSAGGGIDLSNPEDIEEALKKSGIVGVFKVKIIPLPGGKWKKIIEPVKLLPKEELEKAGLISAGGSAGG [r6_402_TrMRF]	0.825 ± 0.043 kcal/mol	0.444 ± 0.12 kcal/mol	0.637 ± 0.095 kcal/mol
SAGGSAKKKKTLKITLIIKVKTKEEAEKLAEELAEKLKKLLPEGAKIKVKVTVNKETGYVTVEIELSAGGSA [r15_981_TrROS_Hall]	2.88 ± 0.16 kcal/mol	3.64 ± 0.14 kcal/mol	3.38 ± 0.15 kcal/mol
SAGGSAGGSAGGPTIVLKVSPEELKALEKAGVEIEKIEKNEDGELYITLTPEALKKAGFESAGGSAGGSAGG [r7_587_TrROS_Hall]	2.85 ± 0.13 kcal/mol	2.91 ± 0.057 kcal/mol	2.97 ± 0.11 kcal/mol
